In paper doi:10.1101/2023.08.15.553463:

Molecular target: actin filaments (F-actin) polymerised from chicken skeletal muscle actin (chicken) (UniProt P68139)
Experiment: TIRF microscopy (gliding filament assay); unpatterned PEG-silane coverslips with 50 nM myosin-5; 1 μM phalloidin-labelled F-actin pre-incubated with 1, 2, 5 or 10 nM CPC for 15 min at room temperature; imaging buffer with 2 mM ATP and calmodulin; about 25°C

capping protein complex (CPC): two CapZAB capping protein heterodimers covalently attached through a linker complex (from UniProt P47753 1-286; P47757-2 1-272)
median time to rupture of paired filament complexes under myosin-5 tension: 26 to 29 s
